Consider five molecules from publication PMC11074299, “Deciphering DED assembly mechanisms in FADD-procaspase-8-cFLIP complexes regulating apoptosis” (Nature Communications, 2024).

To fix the notation:
B1: Casp-8^tDED_F122G/L123G mutant (domain or fragment, human, UniProt Q14790 1-185, looked up)
chain: MDFSRNLYDIGEQLDSEDLASLKFLSLDYIPQRKQEPIKDALMLFQRLQEKRMLEESNLSFLKELLFRINRLDLLITYLNTRKEEMERELQTPGRAQISAYRVMLYQISEEVSRSELRSFKGGLQEEISKCKLDDDMNLLDIFIEMEKRVILGEGKLDILKRVCAQINKSLLKIINDYEEFSKER
notes: procaspase-8 (Casp-8) tandem DED, human, residues 1-185, F122G/L123G (FGLG) in the FL motif of DED2; The methods name no tag for this protein; also called C8^FGLG; source: E. coli BL21-CodonPlus; co-purified in the ternary complex (Ni-NTA, SEC); also purified alone by SEC
B2: Casp-8^tDED F122A mutant (Casp-8^tDED_F122A) (domain or fragment, human, UniProt Q14790 1-185, looked up)
chain: B1 chain with G122A, G123L
notes: source: E. coli, co-expressed with CF^H7G, SEC
B3: full-length FADD H9G mutant (FADD^FuL_H9G) (natural protein)
chain: MDPFLVLLGSVSSSLSSSELTELKFLCLGRVGKRKLERVQSGLDLFSMLLEQNDLEPGHTELLRELLASLRRHDLLRRVDDFEAGAAAGAAPGEEDLCAAFNVICDNVGKDWRRLARQLKVSDTKIDSIEDRYPRNLTERVRESLRIWKNTEKENATVAHLVGALRSCQMNLVADLVQEVQQARDLQNRSGAMSPMSWNSDASTSEAS
notes: Fas-associated protein with death domain (FADD), human, full length, H9G; only the DED is visible in the crystal structure (FADD DD not visible); A selenomethionine-substituted complex was also made for phasing (PDB 8YD7); also called FADD^DED molecule FAl; source: E. coli BL21-CodonPlus, co-purified in the ternary complex (Ni-NTA, SEC); not shown: 6xHis, C-terminal, kept
B4: wild-type full-length FADD (FADD^FuL) (natural protein, human, UniProt Q13158 1-208, looked up)
chain: B3 chain with G9H
notes: Fas-associated protein with death domain (FADD), human, wild type, full length; only the DED is visible in the cryo-EM maps; also called FA^FuL; WT FADD; source: E. coli BL21-CodonPlus; co-purified in the ternary complex (Ni-NTA, SEC); also in precipitates of overexpressed proteins resuspended in water; not shown: 6xHis, C-terminal, kept
B5: full-length Casp-8 mutant F122G/L123G/C360A/D374A/D384A (natural protein, human, UniProt Q14790 1-479, looked up)
chain: MDFSRNLYDIGEQLDSEDLASLKFLSLDYIPQRKQEPIKDALMLFQRLQEKRMLEESNLSFLKELLFRINRLDLLITYLNTRKEEMERELQTPGRAQISAYRVMLYQISEEVSRSELRSFKGGLQEEISKCKLDDDMNLLDIFIEMEKRVILGEGKLDILKRVCAQINKSLLKIINDYEEFSKERSSSLEGSPDEFSNGEELCGVMTISDSPREQDSESQTLDKVYQMKSKPRGYCLIINNHNFAKAREKVPKLHSIRDRNGTHLDAGALTTTFEELHFEIKPHDDCTVEQIYEILKIYQLMDHSNMDCFICCILSHGDKGIIYGTDGQEAPIYELTSQFTGLKCPSLAGKPKVFFIQAAQGDNYQKGIPVETASEEQPYLEMALSSPQTRYIPDEADFLLGMATVNNCVSYRNPAEGTWYIQSLCQSLRERCPRGDDILTILTEVNYEVSNKDDKKNMGKQMPQPTFTLRKKLVFPSD
notes: procaspase-8 (Casp-8), human, full length with FGLG mutations, catalytic inactivity and processing deficiencies; only the tDED is visible in the cryo-EM maps (protease domain not visible); The methods name E. coli BL21-CodonPlus only for FADD, the Casp-8 tDED mutant and cFLIP tDED; also called Casp-8^tDED molecules C8a, C8b, C8c (triple-FADD complex)

Data set [1] deals with B4. The data set can be described thus: negative-stain EM; C8^FGLG purified by SEC, in the presence of WT FADD with a C-terminal His-tag; FADD detected by Ni-NTA Nanogold; SDS-PAGE of the EM sample. As to conditions: both partners purified.
A further data set deals with cFLIP^tDED H7G mutant (human, UniProt O15519 1-181, H7G). Description: crystal structure; FA^FuL_H9G-C8^FGLG-CF^H7G complex; proteins individually expressed in E. coli, complex co-purified by Ni-NTA and SEC (80 mM NaCl, 20 mM Tris pH 8.0); hanging drop, 20 °C; MR-SAD; 3.1 Å; one 1:5:4 complex per asymmetric unit; FADD DD not visible. As to conditions: both partners purified.

Data set [2] has as its target B3. The data set is described as above. As to conditions: both partners purified.
Data set [3] concerns the molecule itself. The data set can be described thus: SEC + other: negative-stain EM; Casp-8^tDED_F122A and CF^H7G co-expressed; SEC profile, negative-stain EM and SDS-PAGE of the peak fractions.
The target of data set [4] is B5. Description: cryo-EM structure; FA^FuL-C8^FuL_FGLG_CADA-CF complex; Complex A without cross-linking (7.5 Å) and Complex B stabilised by GraFix, glutaraldehyde (3.7 Å); Casp-8 protease domain and FADD DD not visible. As to conditions: both partners purified.
The next data set concerns the target wild-type cFLIP^tDED (human, UniProt O15519 1-181). The description is as above. As to conditions: both partners purified.
Data set [5] deals with the molecule itself. Described as above.

Changes are numbered by the printed parent chain. Names and notes keep the numbering of the source.

Regarding B1, the binding result (in data set [1]; with cFLIP^tDED H7G mutant; in data set [2]) was “binds” throughout.

For B2, the binding result in data set [3] was “binds”.

Take B3: the binding result with cFLIP^tDED H7G mutant is “binds”.

With B4, the binding result in data set [4] is reported as “binds”.

B5: the binding result with wild-type cFLIP^tDED is recorded as “binds”. Besides, the “stoichiometry N” value in data set [5] is 3.

By stoichiometry N is commonly meant a count of units in the complex or per binding partner.
